Test results from article doi:10.1101/2025.09.08.674988.
Where two headings read alike, the source gives them in different places.

What was measured:
[1] = molecular target: T1, NS5B(Δ21)-FlAsH-His (RNA-dependent RNA polymerase) (Hepatitis C virus genotype 2a, UniProt Q99IB8 2443-3012); experiment: EMSA
[2] = molecular target: T1, NS5B(Δ21)-FlAsH-His (RNA-dependent RNA …); experiment: EMSA; remark: listed apart in the source

Row | Binder | binding result [1] | binding result [2]
1 | 5'UTR RNA (ssRNA) RNA: AUACUAACGCCAUGGCUAGGCGCUUUCUGCGUGAAGACAGUAGUUCCUCACAGGGGAGUGAUUCAUGGCGGAGUGUCGCCCCU | binds | 
2 | Synthetic RNA (structured_RNA) RNA: AGGGUUUUUUUUUUUAUUAUUUAUUCUUUAUUUUUCUUGCGUAGUUUUCUACG |  | binds
